Results reported in article PMC3657613 (Nature chemical biology, 2012).

Experiments:
wild-type MC4R = assay: MC4R activity, cAMP-responsive luciferase reporter in transfected HEK293 cells; assay type: cell-based, human; details: constitutive activity; Fig. 1f
MC4R Δ1–24 = MC4R Δ1–24 (Homo sapiens, UniProt P32245); assay: as above; assay type: cell-based; details: for stimulation of MC4R Δ1–24 by peptide (efficacy): compared with constitutive activity of wild-type MC4R, normalized to membrane expression, triplicate, Fig. 2a
Sequence of MC4R Δ1–24 (P32245 25-332, stated change not applied): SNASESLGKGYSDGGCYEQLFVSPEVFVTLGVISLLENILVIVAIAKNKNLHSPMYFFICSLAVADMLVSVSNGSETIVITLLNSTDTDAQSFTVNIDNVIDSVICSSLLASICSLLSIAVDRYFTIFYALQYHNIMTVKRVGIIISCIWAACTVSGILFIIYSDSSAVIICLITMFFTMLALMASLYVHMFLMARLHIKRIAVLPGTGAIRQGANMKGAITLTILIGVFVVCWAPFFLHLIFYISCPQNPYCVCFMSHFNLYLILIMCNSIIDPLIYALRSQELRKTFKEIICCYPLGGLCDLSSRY

| Substance | stimulation of MC4R Δ1–24 by peptide (efficacy) (MC4R Δ1–24) | other results |
| --- | --- | --- |
| Agouti-related protein (SSRRCVRLHESCLGQQVPCCDPCATCYCRFFNAFCYCRKLGTAMNPCSRT; UniProt O00253 83-132, looked up) [AgRP] | – | AgRP inverse agonism of wild-type MC4R (wild-type MC4R): inverse agonism of the wild-type receptor; AgRP antagonism of MC4R 2–26 activation of MC4R Δ1–24 (MC4R Δ1–24; Fig. 1f): inhibits the activation of MC4R Δ1–24 by MC4R 2–26 with similar potency as its inverse agonism of the wild-type receptor; effect on residual N terminal–independent constitutive activity of MC4R Δ1–24 (MC4R Δ1–24; Supplementary Fig. 3a): inhibits the residual N terminal–independent constitutive activity; inhibition of αMSH-induced receptor activation (MC4R Δ1–24; receptor with or without the N-terminal domain, Supplementary Fig. 3e): inhibits αMSH-induced receptor activation independent of the absence or presence of the N-terminal domain |
| HLWNRS [MC4R 14–19] | not significantly different from the constitutive activity of wild-type MC4R | – |
| MC4R 2–19: smaller overlapping peptide spanning the MC4R N-terminal domain, residues 2–19 (VNSTHRGMHTSLHLWNRS) | not significantly different from the constitutive activity of wild-type MC4R | – |
| MC4R 8–20: smaller overlapping peptide spanning the MC4R N-terminal domain, residues 8–20 (GMHTSLHLWNRSS) | not significantly different from the constitutive activity of wild-type MC4R | – |
| MC4R 8–26: smaller overlapping peptide spanning the MC4R N-terminal domain, residues 8–26 (GMHTSLHLWNRSSYRLHSN) | not significantly different from the constitutive activity of wild-type MC4R | – |
| MC4R 14–19 H14A: MC4R 14–19 hexapeptide with H14A substitution (ALWNRS) | markedly disrupted MC4R 14–19 efficacy | – |
| MC4R 14–19 L15A: MC4R 14–19 hexapeptide with L15A substitution (HAWNRS) | not significantly different from the constitutive activity of wild-type MC4R | – |
| MC4R 14–19 N17A: MC4R 14–19 hexapeptide with N17A substitution (HLWARS) | not significantly different from the constitutive activity of wild-type MC4R | – |
| MC4R 14–19 R18L: MC4R 14–19 hexapeptide with R18L substitution (HLWNLS) | markedly disrupted MC4R 14–19 efficacy | – |
| MC4R 14–19 S19A: MC4R 14–19 hexapeptide with S19A substitution (HLWNRA) | not significantly different from the constitutive activity of wild-type MC4R | – |
| MC4R 14–19 W16A: MC4R 14–19 hexapeptide with W16A substitution (HLANRS) | markedly disrupted MC4R 14–19 efficacy | – |
| MC4R 14–26: smaller overlapping peptide spanning the MC4R N-terminal domain, residues 14–26 (HLWNRSSYRLHSN) | not significantly different from the constitutive activity of wild-type MC4R | – |
